Patent publication US20020081603

Tested on: acetylated histone H3
Details: ChIP with qPCR

Substance | binding signal (fold enrichment vs untreated) (HCT15 cells treated with 2 uM 5-azacytidine) | binding signal (reference (10-fold lower than treated)) (5mC in CpG island, untreated HCT15 cells)
p16 5'-UTR CpG island region, unmethylated (5-azacytidine-treated HCT15) | 10 | 
p16 5'-UTR CpG island region, methylated (untreated HCT15) |  | 1
